Data reported in patent US20100120063A1, “GPCR Arrestin Assays” (DISCOVERX CORPORATION, priority 2008, published 2010).

Assays:
OPRM1-PK = target: T1, OPRM1-PK (Homo sapiens, UniProt P35372); test: Arrestin-EA EFC agonist assay, U2OS cells expressing OPRM1-PK only; assay type: cell-based; conditions: U2OS OPRM1-PK only
T1 construct: PK (beta-galactosidase ED); expressed in transfected cells; host or cells: U2OS
Experimental: (§1) For all assays, 10,000 cells per well were seeded in 20 μL media and incubated overnight in 1% Fetal Bovine Serum and appropriate basal media (F-12 or DMEM). For agonist assays, 5 μL compound was added to cells and incubated at Room Temp. […] Arrestin-EA complex formation with the GPCR was detected with 50% (v/v) of PathHunter Detection Reagent (Dx 93-0001, PathHunter reagents are available from DiscoveRx, Corp., Fremont, Calif.) (Lysis buffer active ingredient 2% CHAPS, Emerald II and Galacton star are from Applied Biosystems.) Data was read on Packard Victor 2 or PerkinElmer ViewLux readers and analyzed using GraphPad Prism 4.

OPRM1-PK and PROKR2 = target: T2, OPRM1-PK and PROKR2 (Homo sapiens, UniProt Q8NFJ6); test: Transactivation assay, U2OS cells co-expressing OPRM1-PK and PROKR2 (FIG. 14C); assay type: cell-based
T2 construct: expressed in transfected cells; host or cells: U2OS
T2 sequence (Q8NFJ6 whole entry, species assumed): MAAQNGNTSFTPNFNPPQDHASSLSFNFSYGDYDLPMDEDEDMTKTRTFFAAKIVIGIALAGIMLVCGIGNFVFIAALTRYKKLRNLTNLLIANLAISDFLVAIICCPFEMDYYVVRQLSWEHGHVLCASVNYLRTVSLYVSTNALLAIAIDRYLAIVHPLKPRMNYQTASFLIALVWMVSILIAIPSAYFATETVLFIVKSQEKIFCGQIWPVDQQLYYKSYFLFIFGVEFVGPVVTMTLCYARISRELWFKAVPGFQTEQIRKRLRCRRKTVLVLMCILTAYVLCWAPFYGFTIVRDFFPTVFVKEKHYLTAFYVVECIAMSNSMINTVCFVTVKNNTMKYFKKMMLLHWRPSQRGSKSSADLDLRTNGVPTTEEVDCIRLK
Experimental: as §1

T1 sequence (P35372 whole entry): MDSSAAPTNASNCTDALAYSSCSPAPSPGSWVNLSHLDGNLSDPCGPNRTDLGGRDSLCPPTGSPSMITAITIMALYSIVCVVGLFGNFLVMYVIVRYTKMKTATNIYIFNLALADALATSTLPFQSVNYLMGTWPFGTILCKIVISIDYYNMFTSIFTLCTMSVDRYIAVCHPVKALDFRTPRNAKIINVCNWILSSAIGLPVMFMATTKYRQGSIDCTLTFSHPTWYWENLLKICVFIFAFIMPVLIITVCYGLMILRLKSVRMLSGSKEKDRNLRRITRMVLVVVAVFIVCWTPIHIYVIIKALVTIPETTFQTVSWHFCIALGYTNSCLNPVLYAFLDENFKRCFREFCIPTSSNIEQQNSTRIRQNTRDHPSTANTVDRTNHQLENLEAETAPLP

B1: EG-VEGF: PROKR2 ligand, EG-VEGF/prokineticin (protein)
chain: AVITGACERDVQCGAGTCCAISLWLRGLRMCTPLGREGEECHPGSHKVPFFRKRKHHTCPCLPNLLCSRFPDGRYRCSMDLKNINF
- EC50 (OPRM1-PK): 32.1 nM
- HILLSLOPE (OPRM1-PK): 1.011
- BOTTOM (OPRM1-PK; curve fit, signal): 25.82
- TOP (OPRM1-PK; curve fit, signal): 57.34
- LOGEC50 (OPRM1-PK; log of EC50, negative sign as printed): −7.493
- EC50 (OPRM1-PK and PROKR2; FIG. 14C): 52.2 nM
- HILLSLOPE (OPRM1-PK and PROKR2; FIG. 14C): 1.328
- transactivation response (OPRM1-PK and PROKR2; OPRM1-PK and PROKR2 coexpressed): weak response
- BOTTOM (OPRM1-PK and PROKR2; curve fit, signal, FIG. 14C): 294.3
- TOP (OPRM1-PK and PROKR2; curve fit, signal, FIG. 14C): 9875
- LOGEC50 (OPRM1-PK and PROKR2; log of EC50, negative sign as printed, FIG. 14C): −7.282
